Reference: the Human Domainome abundance scans (Beltran et al. 2025)
± gives the uncertainty stated by the source.

B1: POU domain, class 3, transcription factor 3, residues 408 to 463; numbered along this chain, P20264 (parent)
chain: KKRTSIEVSVKGALESHFLKCPKPSAQEITNLADSLQLEKEVVRVWFCNRRQKEKR

Variants of: B1
Test: abundance fitness (aPCA) (normalised: wild type 0, dead -1); higher = more abundant; growth selection in yeast, the domain comes from the species named
Conditions: Homo sapiens

Abundance fitness, by site and new letter:
P22: I -0.572 ± 0.23, S -0.35 ± 0.17, H -0.448 ± 0.36, G -0.19 ± 0.11, V -0.641 ± 0.18, A -0.121 ± 0.2, Y -0.383 ± 0.47, K -0.432 ± 0.48, R -0.398 ± 0.14, L -0.732 ± 0.41
E15: A -0.858 ± 0.28, L -0.599 ± 0.19, M -0.713 ± 0.4, G -1.02 ± 0.23, V -0.698 ± 0.21, K -0.582 ± 0.3, W -0.593 ± 0.23, S -1 ± 0.3, R -1.03 ± 0.24, D -0.753 ± 0.42, N -1.02 ± 0.41
A13: N -0.274 ± 0.18, M -0.096 ± 0.12, Y -0.17 ± 0.14, V 0.111 ± 0.075, I -0.046 ± 0.18, G -0.46 ± 0.067, P -0.353 ± 0.12, T -0.058 ± 0.096, D -0.355 ± 0.13, L -0.093 ± 0.077, W -0.344 ± 0.092, S -0.079 ± 0.089, R 0.018 ± 0.064, Q -0.099 ± 0.11, F -0.191 ± 0.17, E -0.081 ± 0.095
L32: F -0.556 ± 0.16, W -0.967 ± 0.17, V -0.245 ± 0.067, C -1.07 ± 0.41, D -1.03 ± 0.14, S -0.95 ± 0.13, A -0.92 ± 0.15, G -0.88 ± 0.1, Q -0.923 ± 0.16, K -1.06 ± 0.2, I 0.187 ± 0.17, T -0.78 ± 0.12, N -0.897 ± 0.19, R -0.758 ± 0.091, H -0.652 ± 0.16, E -0.782 ± 0.13, P -0.935 ± 0.19
P24: Q -0.842 ± 0.2, K -0.93 ± 0.23, E -0.871 ± 0.17, S -0.874 ± 0.13, V -0.792 ± 0.093, M -0.867 ± 0.16, I -0.731 ± 0.22, R -0.918 ± 0.094, A -0.778 ± 0.14, C -0.83 ± 0.19, T -0.825 ± 0.24, L -0.881 ± 0.099, F -0.827 ± 0.22, G -1.05 ± 0.11, D -0.802 ± 0.17
L19: H -0.173 ± 0.097, F -0.346 ± 0.11, Q 0.002 ± 0.1, T -0.155 ± 0.093, P -1.09 ± 0.19, N 0.014 ± 0.13, A -0.029 ± 0.086, C -0.138 ± 0.091, Y -0.288 ± 0.15, S -0.047 ± 0.069, V -0.075 ± 0.066, R -0.024 ± 0.059, K -0.057 ± 0.091, E -0.086 ± 0.1, W -0.339 ± 0.074, D -0.191 ± 0.11, G -0.238 ± 0.062, M 0.033 ± 0.099
S25: P -0.373 ± 0.14, H -0.593 ± 0.17, M -0.681 ± 0.15, K -0.565 ± 0.11, R -0.398 ± 0.065, W -0.885 ± 0.11, G -0.172 ± 0.063, I -0.84 ± 0.41, V -0.45 ± 0.081, Q -0.537 ± 0.11, L -0.559 ± 0.078, F -0.773 ± 0.25, E -0.287 ± 0.11, N -0.092 ± 0.16, T -0.075 ± 0.11, Y -0.66 ± 0.13, C -0.185 ± 0.11
N31: Y -0.009 ± 0.098, S -0.033 ± 0.038
D34: N 0.143 ± 0.12
S16: C -0.086 ± 0.12, E 0.006 ± 0.091, W -0.502 ± 0.088, R -0.011 ± 0.063, D 0.026 ± 0.11, G -0.059 ± 0.065, T -0.067 ± 0.13, K 0.036 ± 0.12, V -0.261 ± 0.075, F -0.232 ± 0.099, A -0.026 ± 0.089, I -0.361 ± 0.17, Y -0.004 ± 0.14, N -0.044 ± 0.17, M -0.076 ± 0.12, L -0.106 ± 0.084, Q 0.012 ± 0.14, P -0.441 ± 0.13, H -0.287 ± 0.17
T30: E -0.107 ± 0.11, A -0.028 ± 0.077, I -0.035 ± 0.099, H -0.153 ± 0.12, Q 0.079 ± 0.11, S 0.031 ± 0.071, M -0.057 ± 0.095, R -0.17 ± 0.066, W -0.327 ± 0.095, N -0.095 ± 0.099, C -0.037 ± 0.12, P -0.847 ± 0.14, K -0.044 ± 0.1, V -0.1 ± 0.064, Y -0.337 ± 0.13, G -0.072 ± 0.062, D 0.048 ± 0.1, F -0.082 ± 0.12
C21: T -0.094 ± 0.1, R -0.501 ± 0.063, E 0.048 ± 0.089, M -0.314 ± 0.1, K -0.408 ± 0.12, V -0.249 ± 0.069, S 0.041 ± 0.086, G -0.468 ± 0.062, D -0.094 ± 0.12, I -0.73 ± 0.24, L -0.611 ± 0.088, Y -0.383 ± 0.12, F -0.407 ± 0.16, H -0.031 ± 0.19, P -0.719 ± 0.13, Q 0.084 ± 0.11
S35: C -0.079 ± 0.14, A -0.019 ± 0.079
Q27: G -0.076 ± 0.067, N 0.098 ± 0.19, I -0.312 ± 0.16, C -0.171 ± 0.1, E -0.036 ± 0.11, M -0.194 ± 0.1, A -0.049 ± 0.081, W -0.222 ± 0.076, T -0.151 ± 0.11, H -0.123 ± 0.12, R -0.055 ± 0.058, Y -0.195 ± 0.15, L -0.091 ± 0.068, S -0.098 ± 0.073, K -0.095 ± 0.11, V -0.11 ± 0.07, P -0.279 ± 0.084, F -0.27 ± 0.13
E28: V -0.442 ± 0.084, C -0.368 ± 0.12, I -0.223 ± 0.26, P -0.838 ± 0.13, Q -0.145 ± 0.15, T -0.251 ± 0.13, W -0.59 ± 0.1, H -0.554 ± 0.25, F -0.573 ± 0.15, Y -0.048 ± 0.18, D -0.256 ± 0.15, K -0.538 ± 0.13, N -0.455 ± 0.19, R -0.456 ± 0.069, G -0.237 ± 0.067, S -0.45 ± 0.09, A -0.118 ± 0.083
I29: N -0.982 ± 0.26, V -0.204 ± 0.08, H -0.997 ± 0.41, W -0.903 ± 0.14, M -0.028 ± 0.11, P -0.871 ± 0.21, F -0.832 ± 0.2, D -0.871 ± 0.24, T -0.849 ± 0.19, C -0.574 ± 0.14, Q -0.822 ± 0.15, R -0.859 ± 0.097, K -1.07 ± 0.17, G -0.899 ± 0.099, E -0.301 ± 0.11, L -0.038 ± 0.08, S -0.781 ± 0.15, Y -0.889 ± 0.23
A26: W -0.155 ± 0.083, T -0.081 ± 0.1, G -0.086 ± 0.06, P 0.039 ± 0.13, D -0.004 ± 0.11, V -0.1 ± 0.069, M -0.063 ± 0.1, Y -0.087 ± 0.13, F -0.297 ± 0.15, Q -0.024 ± 0.11, H 0.071 ± 0.17, R -0.073 ± 0.064, L -0.005 ± 0.074, S -0.168 ± 0.08, E 0.031 ± 0.087, C -0.102 ± 0.087
K23: I -0.065 ± 0.12, T -0.052 ± 0.1, Q -0.192 ± 0.12, S 0.033 ± 0.069, G -0.252 ± 0.063, N 0.248 ± 0.11, L -0.057 ± 0.075, D 0.114 ± 0.099, R -0.049 ± 0.063, W -0.084 ± 0.077, V -0.082 ± 0.066, M -0.031 ± 0.1, H -0.127 ± 0.14, P -0.724 ± 0.2, A -0.001 ± 0.077, E -0.028 ± 0.072, Y -0.05 ± 0.11, F -0.034 ± 0.12
F18: E -0.875 ± 0.12, D -0.568 ± 0.16, T -0.922 ± 0.14, N -1.18 ± 0.24, V -0.859 ± 0.077, I -0.973 ± 0.2, K -0.925 ± 0.15, H -0.932 ± 0.21, L -1.01 ± 0.11, S -0.902 ± 0.11, Q -0.703 ± 0.2, W -0.5 ± 0.096, A -0.84 ± 0.091, C -0.935 ± 0.16, Y 0.026 ± 0.12, R -0.935 ± 0.097
H17: R -0.444 ± 0.072, L -0.188 ± 0.081, Q -0.134 ± 0.12, A -0.055 ± 0.081, G -0.683 ± 0.074, F -0.104 ± 0.15, N -0.189 ± 0.16, I -0.219 ± 0.14, P -0.807 ± 0.16, W -0.048 ± 0.08, T -0.234 ± 0.096, M -0.147 ± 0.1, C -0.201 ± 0.11, S -0.039 ± 0.085, V -0.069 ± 0.07, Y 0.041 ± 0.11, E -0.176 ± 0.089
A33: L -0.889 ± 0.098, E -0.964 ± 0.21, Q -0.931 ± 0.18, K -0.981 ± 0.19, N -0.941 ± 0.26, Y -0.836 ± 0.18, M -0.823 ± 0.13, P -0.909 ± 0.15, D -0.863 ± 0.13, W -0.878 ± 0.12, I -0.864 ± 0.17, G -0.623 ± 0.079, F -0.941 ± 0.17, S -0.052 ± 0.078, C -0.515 ± 0.11, T -0.939 ± 0.16, H -0.513 ± 0.22, R -0.989 ± 0.087, V -0.955 ± 0.11
L14: D -0.697 ± 0.22, A -0.8 ± 0.1, T -0.839 ± 0.12, Y -0.815 ± 0.18, N -1.01 ± 0.18, I -0.45 ± 0.2, P -1 ± 0.18, S -0.87 ± 0.097, Q -0.942 ± 0.17, V -0.899 ± 0.1, F -0.899 ± 0.29, G -0.958 ± 0.083, W -1.01 ± 0.12, C -0.662 ± 0.12, E -1.11 ± 0.16
K20: M -0.187 ± 0.12, F -0.438 ± 0.12, V -0.127 ± 0.089, L -0.195 ± 0.072, W -0.421 ± 0.097, R -0.05 ± 0.075, I -0.191 ± 0.1, C -0.465 ± 0.14, S -0.233 ± 0.078, G -0.366 ± 0.079, Q 0.054 ± 0.14, H -0.279 ± 0.14, Y -0.335 ± 0.11, T -0.256 ± 0.1, P -0.912 ± 0.17, A -0.218 ± 0.079, D -0.197 ± 0.15, N -0.109 ± 0.11
